For this assay, the system named is Nicotiana tabacum cv.Nc89. Nature of the assay: Flavonoid O-methyltransferase activity in transgenic tobacco. The assay is classed as in vivo. The text has this: The full length genes were introduced with a BamHl site and an XhoI site on 5′- and 3′-end by PCR with primers SEQ No. 5 & 6. The double digested fragment of interest and eukaryotic expression vector pBI121 with BamHl site and an XhoI were ligated. Then the appropriate constructs were introduced into Agrobacterium strain EHA105 by electroporation.
Leaf of Nicotiana tabacum cv.Nc89 plant (Donated by Professor Silan Dai, Beijing Forestry University) was disinfected by 75% ethanol for 30 s, followed by 2% sodium hypochlorite for 3 minutes, and then washed with sterile water for three times. The leaf was cut into squares (25 mm^2) A single colony of Agrobacterium strain EHA105 with pBI121-FOMT construct was used to inoculate with 2 mL of YEB medium (per liter: 5 g of beef extract, 1 g of yeast extract, 5 g of sucrose, and 0.5 g of MgSO4.7H2O), supplemented with 50 mg mL^−1 kanamycin and 25 mg mL^−1 Rifampicin. The culture was incubated at 28° C. until OD600 0.6-0.8, and the bacteria were pelleted by centrifugation at 5000 rpm for 5 minutes. The cells were washed by MS liquid medium and resuspended pellets with appropriate volume of MS liquid. The tobacco leaf squares were dipped into the bacteria solution for 8 minutes and cultivated on MS media containing 2.0 mg L^−1 6-benzylaminopurine (6-BA), 0.2 mg L^−1 1-naphthylacetic acid (NAA), and 500 mg L^−1 ceflomine. The explants were transferred to fresh selected medium after two weeks. When the regenerating plantlets grow to 2 cm, move them to MS media containing 0.2 mg L^−1 NAA to induce root. After four weeks, the transgenic tobacco plantlets were transferred to pots and kept in the greenhouse till flowering. The positive transgenic lines were selected by PCR, and transgenic plantlets with empty plasmid were used as control. The anthocyanins in transgenic petals were detected with an HPLC system.
Appropriate amount of sample (petal, fruits) was powdered with mortars and pestles and extracted for the first time with 2 mL 2% (v/v) formic acid methanol solution shaken in a QL-861 vortex (Kylinbell Lab Instruments, Jiangsu, China), sonicated in KQ-500DE ultrasonic cleaner (Ultrasonic instruments, Jiangsu Kunshan, China) at 20° C. for 20 min, centrifuged in SIGMA 3K30 (SIGMA centrifugers, Germany) (12000 rpm, 10 min), and the supernatant was collected. Additional 2 mL and 1 mL extraction solution was supplemented to the residue, and repeated aforesaid operation for the second and third times. All extract was pooled and filtrated through 0.22 μm reinforced nylon membrane filters (Shanghai ANPEL, Shanghai, China) before the HPLC-DAD and HPLC-ESI-MS^n analyses. Three replicates were performed for each sample. […]
HPLC-ESI-MS^n analysis was carried with an Agilent-1100 HPLC system equipped with a UV detector coupled to a LC-MSD Trap VL ion-trap mass spectrometer via an ESI source (Agilent Technologies, Palo Alto, Calif.). […] The MS conditions were listed as follow: negative-ion (NI) mode; capillary voltage of 3.5 kV; a nebulization pressure of 241.3 kPa; and a gas (N2) temperature of 350° C. with flow rate of 6.0 L min^−1 Capillary offset voltage was 77.2 V. MS spectra were recorded over the range from m/z 50-1000.

B1: PsFOMT: flavonoid O-methyltransferase from tree peony Paeonia suffruticosa cv. 'Gunpohden', SEQ ID NO: 3; recombinant MBP fusion protein (protein, listed as Paeonia suffruticosa)
chain: MAESDRKGILKSEALLKYILETSVYPREHEQLKQLRQATVDKYKYWSVMNVPADEGQFLSMLLKIMNAKKTIEVGVFTGYSLLTAALALPTDAKITAIDPDGEAYETGLPFIKKAGVEHKINYIQADAMSVLDDLVTNGKEEGSFDFAFVDADKENYAKYHEPLMKLVKIGGIIGYDNTLWFGSVALSDGDEMKEFQEKGRRIFREFNTFLAADPRIELAHISIGDGLALCRRLY
modifications: MBP fusion
notes: recombinant MBP fusion protein
For B1, the “flower color compared with control lines” value (transgenic tobacco flowers) was “tend to purplish”. In addition, the “methyltransferase function in tobacco petal (new anthocyanin Pn3R detected)” value (transgenic tobacco petals vs empty vector) is recorded as “performed as a methyltransferase”. The “content of peonidin 3-O-rutinoside (Pn3R) in total anthocyanin (TA)” value (transgenic tobacco petals, 35S:: lines) is recorded as “much higher”.
